The record followed here is publication PMC10591846 (Cell reports, 2023).

Where no end group is shown, it is not given here. The star is where a group is joined. Biotin = O=C1N[C@H]2[C@H](CS[C@H]2CCCCC(=O)*)N1

Holding throughout (test): AlphaScreen or HTRF
(In Alpha technology, singlet oxygen from a donor bead excites a nearby acceptor bead.)

The target in one experiment is T1, GST-Pirh2_(15-195) (human, UniProt Q96PM5 15-195).
T1 sequence: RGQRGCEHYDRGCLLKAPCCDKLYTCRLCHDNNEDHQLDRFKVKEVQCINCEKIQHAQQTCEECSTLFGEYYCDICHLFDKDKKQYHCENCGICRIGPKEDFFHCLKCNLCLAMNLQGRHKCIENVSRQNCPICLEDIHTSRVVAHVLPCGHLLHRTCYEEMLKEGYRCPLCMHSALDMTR

Experiment [1] deals with GST-KLHDC10 (full length) with Elongin B/C (human | , UniProt Q6PID8 1-442; Q15370 1-104; Q15369 1-112).
Another experiment deals with T2, GST-Pirh2_(1–195) (human, UniProt Q96PM5 1-195).
T2 sequence: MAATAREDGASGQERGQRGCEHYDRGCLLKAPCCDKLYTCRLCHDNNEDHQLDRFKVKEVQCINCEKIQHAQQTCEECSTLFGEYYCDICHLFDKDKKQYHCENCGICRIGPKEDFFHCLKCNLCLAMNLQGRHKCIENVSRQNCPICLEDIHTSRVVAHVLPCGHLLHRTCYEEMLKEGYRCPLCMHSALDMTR

Chain of GST-KLHDC10 (full length) with Elongin B/C (Q6PID8 whole entry, chain 1 of 2): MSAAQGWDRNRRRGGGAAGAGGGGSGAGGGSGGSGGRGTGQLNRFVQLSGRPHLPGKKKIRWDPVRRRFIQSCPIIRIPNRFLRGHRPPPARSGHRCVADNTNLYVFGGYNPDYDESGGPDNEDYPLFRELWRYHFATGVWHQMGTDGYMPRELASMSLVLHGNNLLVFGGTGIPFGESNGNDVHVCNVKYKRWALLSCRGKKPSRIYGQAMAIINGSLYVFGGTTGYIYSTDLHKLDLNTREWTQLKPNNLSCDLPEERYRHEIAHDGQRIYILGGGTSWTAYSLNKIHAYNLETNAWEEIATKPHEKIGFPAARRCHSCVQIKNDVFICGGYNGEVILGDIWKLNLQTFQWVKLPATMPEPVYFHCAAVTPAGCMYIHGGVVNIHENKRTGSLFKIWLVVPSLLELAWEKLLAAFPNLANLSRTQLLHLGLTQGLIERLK
Chain of GST-KLHDC10 (full length) with Elongin B/C (Q15369 whole entry, chain 3 of 2): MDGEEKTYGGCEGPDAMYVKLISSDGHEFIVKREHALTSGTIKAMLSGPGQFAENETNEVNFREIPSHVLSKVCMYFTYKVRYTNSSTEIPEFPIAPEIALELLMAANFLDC

For MDELAAAAA, the binding result with GST-Pirh2_(15-195) was “binds”.

The IC50 is the concentration that inhibits the measured activity by half. Low values mean greater potency, high ones weaker potency. Take MDELYKAAAA: the IC50 with GST-Pirh2_(15-195) is around 2000 nM.

YKAAAAA: in the experiment with GST-Pirh2_(15-195), the binding result is on record as “binds”. Molecule MDELYKAAAAA came in with an IC50 with GST-Pirh2_(15-195) of around 50 nM.

MDELYKAAAAAA-NH2 [MDELYKAAAAAA-NH2]: in the experiment with GST-Pirh2_(15-195), the “fold reduction of affinity against the Ala-tail peptide with free carboxyl” value is around 2000 fold. As to Biotin-MDELYKAAAAAA [Biotin-MDELYKAAAAAA], in experiment [1], the binding result is “binds”. In the experiment with GST-Pirh2_(15-195), MDELYKAAAAAD came in with an IC50 of around 26000 nM. In the experiment with GST-Pirh2_(15-195), MDELYKAAAAAG registered an IC50 of around 2000 nM. For MDELYKAAGAAA, in the experiment with GST-Pirh2_(15-195), the “fold reduction of binding against the Ala6 peptide” value amounted to 100 fold. In the experiment with GST-Pirh2_(15-195), MDELYKGAAAAA had an IC50 of around 60 nM. On the same count and under the same terms, as for MDELYKLAAAAA, the figure is around 60 nM. Consider MDELYKAAALAA, for which, in the experiment with GST-Pirh2_(15-195), the “fold reduction of binding against the Ala6 peptide” value turned out to be 3 fold. Regarding ELYKAAAAA, in the experiment with GST-Pirh2_(15-195), the binding result is “binds”. With KAAAAA, in the experiment with GST-Pirh2_(15-195), the binding result is “binds”. With MDELYKAAAAAA [MDELYKAAAAAA (Ala-tail peptide, non-biotinylated)], the IC50 fell in the range of 90 to 120 nM with GST-Pirh2_(1–195), 50 to 120 nM with GST-Pirh2_(15-195) and 5 to 10 nM in experiment [1]. As for DELYKAAAAA, in the experiment with GST-Pirh2_(15-195), the binding result is on record as “binds”. With LYKAAAAA, the binding result with GST-Pirh2_(15-195) was “binds”.
